From paper PMC7354611

Biological target: Bacillus cereus MazF (mRNA interferase BC0266) (Bacillus cereus)
Experiment: SEC; Superdex 75 10/300 GL column, with reference proteins of the Gel Filtration Calibration Kits (GE Healthcare); His-tagged MazF eluted at almost the same time as carbonic anhydrase (29 kDa)

Bacillus cereus MazF (mRNA interferase BC0266) (natural protein)
stoichiometry N: 2
